This assay has as its target Recombinant Fc-tagged hDLL4 (human, UniProt Q9NR61 27-529). The assay is described as follows: SPR. A general note: Surface plasmon resonance follows binding to a sensor surface in real time, without labels.

Sequence of Recombinant Fc-tagged hDLL4 (Q9NR61 27-529): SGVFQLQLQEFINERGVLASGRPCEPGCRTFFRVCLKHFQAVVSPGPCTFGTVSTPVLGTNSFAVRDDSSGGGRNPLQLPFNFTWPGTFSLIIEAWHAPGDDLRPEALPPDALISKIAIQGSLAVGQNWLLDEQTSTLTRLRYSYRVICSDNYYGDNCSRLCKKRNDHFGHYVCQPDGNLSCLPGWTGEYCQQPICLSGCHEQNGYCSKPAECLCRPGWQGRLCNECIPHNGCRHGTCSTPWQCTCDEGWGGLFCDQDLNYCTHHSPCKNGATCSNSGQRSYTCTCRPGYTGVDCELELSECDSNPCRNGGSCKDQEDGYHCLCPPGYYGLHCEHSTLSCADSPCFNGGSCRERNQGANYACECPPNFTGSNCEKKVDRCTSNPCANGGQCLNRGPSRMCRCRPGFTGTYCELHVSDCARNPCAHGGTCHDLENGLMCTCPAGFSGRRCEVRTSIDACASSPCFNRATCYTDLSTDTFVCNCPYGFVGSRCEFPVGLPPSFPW

B1: N4_(10-14)Fc, Notch4 EGF-like repeats 10–14 fused to human IgG Fc (Fc fusion)
chain: RGLLCGSFPEPCANGGTCLSLSLGQGTCQCAPGFLGETCQFPDPCQNAQLCQNGGSCQALLPAPLGLPSSPSPLTPSFLCTCLPGFTGERCQAKLEDPCPPSFCSKRGRCHIQASGRPQCSCMPGWTGEQCQLRDFCSANPCVNGGVCLATYPQIQCHCPPGFEGHACERDVNECFQDPGPCPKGTSCHNTLGSFQCLCPVGQEGPRCELRAGPCPPRGCSNGGTCQLMPEKDSTFHLCLCPPGFIGPDCEVNPDNCVSHQCQNGGTCQDGLDTYTCLCPETWTGWDCSEDVDECETQGPPHCRNGGTCQNSAGSFHCVCVSGWGGTSCEENLDDCIAATCAPGSTCIDRVGSFSCLCPPGRTGLLCHLEDMCLSQPCHGDAQCSTNPLTGSTLCLCQPGYSGPTCHQDLDECLMAQQGPSPCEHGGSCLNTPGSFNCLCPPGYTGSRCEADHNECLSQPCHPGSTCLDLLATFHCLCPPGLEGQLCEVETNECASAPCLNHADCHDLLNGFQCICLPGFSGTRCEEDIDECRSSPCANGGQCQDQPGAFHCKCLPGFEGPRCQTEVDECLSDPCPVGASCLDLPGAFFCLCPSGFTGQLCEVPLCAPNLCQPKQICKDQKDKANCLCPDGSPGCAPPEDNCTCHHGHCQRSSCVCDVGWTGPECEAELGGCISAPCAHGGTCYPQPSGYNCTCPTGYTGPTCSEEMTACHSGPCLNGGSCNPSPGGYYCTCPPSHTGPQCQTSTDYCVSAPCFNGGTCVNRPGTFSCLCAMGFQGPRCEGKLRPSCADSPCRNRATCQDSPQGPRCLCPTGYTGGSCQTLMDLCAQKPCPRNSHCLQTGPSFHCLCLQGWTGPLCNLPLSSCQKAALSQGIDVSSLCHNGGLCVDSGPSYFCHCPPGFQGSLCQDHVNPCESRPCQNGATCMAQPSGYLCQCAPGYDGQNCSKELDACQSQPCHNHGTCTPKPGGFHCACPPGFVGLRCEGDVDECLDQPCHPTGTAACHSLANAFYCQCLPGHTGQWCEVEIDPCHSQPCFHGGTCEATAGSPLGFICHCPKGFEGPTCSHRAPSCGFHHCHHGGLCLPSPKPGFPPRCACLSGYGGPDCLTPPAPKGCGPPSPCLYNGSCSETTGLGGPGFRCSCPHSSPGPRCQKPGAKGCEGRSGDGACDAGCSGPGGNWDGGDCSLGVPDPWKGCPSHSRCWLLFRDGQCHPQCDSEECLFDGYDCETPPACTPAYDQYCHDHFHNGHCEKGCNTAECGWDGGDCRPEDGDPEWGPSLALLVVLSPPALDQQLFALARVLSLTLRVGLWVRKDRDGRDMVYPYPGARAEEKLGGTRDPTYQERAAPQTQPLGKETDSLSAGFVVVMGVDLSRCGPDHPASRCPWDPGLLLRFLAAMAAVGALEPLLPGPLLAVHPHAGTAPPANQLPWPVLCSPVAGVILLALGALLVLQLIRRRRREHGALWLPPGFTRRPRTQSAPHRRRPPLGEDSIGLKALKPKAEVDEDGVVMCSGPEEGEEVGQAEETGPPSTCQLWSLSGGCGALPQAAMLTPPQESEMEAPDLDTRGPDGVTPLMSAVCCGEVQSGTFQGAWLGCPEPWEPLLDGGACPQAHTVGTGETPLHLAARFSRPTAARRLLEAGANPNQPDRAGRTPLHAAVAADAREVCQLLLRSRQTAVDARTEDGTTPLMLAARLAVEDLVEELIAAQADVGARDKWGKTALHWAAAVNNARAARSLLQAGADKDAQDNREQTPLFLAAREGAVEVAQLLLGLGAARELRDQAGLAPADVAHQRNHWDLLTLLEGAGPPEARHKATPGREAGPFPRARTVSVSVPPHGGGALPRCRTLSAGAGPRGGGACLQARTWSVDLAARGGGAYSHCRSLSGVGAGGGPTPRGRRFSAGMRGPRPNPAIMRGRYGVAAGRGGRVSTDDWPCDWVALGACGSASNIPIPPPCLTPSPERGSPQLDCGPPALQEMPINQGGEGKK
On to B1, for which the koff (commonly a measure of how fast the partners let go of each other) came out at 0.0099 s⁻¹.

The values above are taken from paper PMC10119233 (2022).
